Laboratory results published in the DeepSol protein solubility set.

Test: soluble on expression in E. coli; label from the status in PepcDB or PDB records
For “MSYYHHHHHHDYDIPTTENLYFQGAMDPEFRVINLAYDDNGTGDPVVFIAGRGGAGRTWHPHQVPAFLAAGYRCITFDNRGIGATENAEGFTTQTMVADTAALIETLDIAPARVVGVSMGAFIAQELMVVAPELVSSAVLMATRGRLDRARQFFNKAEAELYDSGVQLPPTYDARARLLENFSRKTLNDDVAVGDWIAMFSMWPIKSTPGLRCQLDCAPQTNRLPAYRNIAAPVLVIGFADDVVTPPYLGREVADALPNGRYLQIPDAGHLGFFERPEAVNTAMLKFFASVKA”, the “soluble on expression in E. coli” value was “soluble”.
With “MTAAPGTSMATPHVAGIAALLLQAHPSWTPDKVKTALIETADIVKPDEIADIAYGAGRVNAYKAINYDNYAKLVFTGYVANKGSQTHQFVISGASFVTATLYWDNANSDLDLYLYDPNGNQVDYSYTAYYGFEKVGYYNPTDGTWTIKVVSYSGSANYQVDVVSDGSLSQPGSSPSPQPEPTVDAKTFQGSVHLEHHHHHH” the “soluble on expression in E. coli” value was “not soluble”.
With “MTADKLVFFVNGRKVVEKNADPETTLLAYLRRKLGLSGTKLGCGEGGCGACTVMLSKYDRLQNKIVHFSANACLAPICSLHHVAVTTVEGIGSTKTRLHPVQERIAKSHGSQCGFCTPGIVMSMYTLLRNQPEPTMEEIENAFQGNLCRCTGYRPILQGFRTFARDGGCCGGDGNNPNCCMNQKKDHSVSLSPSLFKPEEFTPLDPTQEPIFPPELLRLKDTPRKQLRFEGERVTWIQASTLKELLDLKAQHPDAKLVVGNTEIGIEMKFKNMLFPMIVCPAWIPELNSVEHGPDGISFGAACPLSIVEKTLVDAVAKLPAQKTEVFRGVLEQLRWFAGKQVKSVASVGGNIITASPISDLNPVFMASGAKLTLVSRGTRRTVQMDHTFFPGYRKTLLSPEEILLSIEIPYSREGEYFSAFKQASRREDDIAKVTSGMRVLFKPGTTEVQELALCYGGMANRTISALKTTQRQLSKLWKEELLQDVCAGLAEELHLPPDAPGGMVDFRCTLTLSFFFKFYLTVLQKLGQENLEDKCGKLDPTFASATLLFQKDPPADVQLFQEVPKGQSEEDMVGRPLPHLAADMQASGEAVYCDDIPRYENELSLRLVTSTRAHAKIKSIDTSEAKKVPGFVCFISADDVPGSNITGICNDETVFAKDKVTCVGHIIGAVVADTPEHTQRAAQGVKITYEELPAIITIEDAIKNNSFYGPELKIEKGDLKKGFSEADNVVSGEIYIGGQEHFYLETHCTIAVPKGEAGEMELFVSTQNTMKTQSFVAKMLGVPANRIVVRVKRMGGGFGGKVTRSTVVSTAVALAAYKTGRPVRCMLDRDEDMLITGGRHPFLARYKVGFMKTGTVVALEVDHFSNVGNTQDLSQSIMERALFHMDNCYKIPNIRGTGRLCKTNLPSNTAFRGFGGPQGMLIAECWMSEVAVTCGMPAEEVRRKNLYKEGDLTHFNQKLEGFTLPRCWEECLASSQYHARKSEVDKFNKENCWKKRGLCIIPTKFGISFTVPFLNQAGALLHVYTDGSVLLTHGGTEMGQGLHTKMVQVASRALKIPTSKIYISETSTNTVPNTSPTAASVSADLNGQAVYAACQTILKRLEPYKKKNPSGSWEDWVTAAYMDTVSLSATGFYRTPNLGYSFETNSGNPFHYFSYGVACSEVEIDCLTGDHKNLRTDIVMDVGSSLNPAIDIGQVEGAFVQGLGLFTLEELHYSPEGSLHTRGPSTYKIPAFGSIPIEFRVSLLRDCPNKKAIYASKAVGEPPLFLAASIFFAIKDAIRAARAQHTGNNVKELFRLDSPATPEKIRNACVDKFTTLCVTGVPENCKPWSVRV” the “soluble on expression in E. coli” value was “soluble”.
In the case of “MTAENIVVVAVDGSEASQNAVRWAANTANKRGVPLRLAASYTMPQFLYAEGMVPPQELFDELQSETMDMIEAARVVAHEVAPDIKIGYVIAEGSPIDMLLDMSSDVTMIVMGSRGLGGLSGMVMGSVSAAVVSHADCPVVVVRSDNHVTETNKYGPVVVGVDGSDVSQRATEFAFEEAQARGAKLVAIHTWMDMQVQASLAGLAAAQQEWEIIEKEQTTLLKDRLQPLLERFPDVEVEMVITRDRPVRALEDCAHNAQLLVVGSHGRGGFRGMLLGSTSRALLQSAPCPMVVVRPNEKEN”, the “soluble on expression in E. coli” value is reported as “not soluble”.
For “MTAESGGRDWTGADLAVVVGDYVAQLEKVLAGKPVDRAAHDRTVRFVTGKADGPISWKQGEISAVLSLIGVPILKDQPPRWAYDNALLDAVEEQLAAKPALLAAAVRPAALFTAPSAVPLIEAAPPKPMPMTQRLIQAIQRFDMGSREADDRFLKGLGIASIVAHEARRLSDRGRPDLAGAIRPARGGDPEGCDVISFGLDEIPRLIVVKTTLAGEVAPFGLSQAEYELSRAQPHAFRIRRVYDLLGEARFYRLKPPFGLEHHHHHH”, the “soluble on expression in E. coli” value was “not soluble”.
With “MTAIPASARIVLDTEIPARVPWSAIIRKGQTLRIVDSHGQQAVDTLFYAADDHGERYSGQDTLRAQGSAYVTTGTRIMSTEGRTMLRMVADSCGLHDTSAGACSCESNTVRFGHQTKYLHACRENFVLEAAKHGLSKRDIVPNLNFFMNVPLDPDGNFTVVDGVSKPGDYVEMVAEMDVLCLISNCPQVNNPCNGFFPTPIQVVIYEAGEDLEHHHHHH” the “soluble on expression in E. coli” value was “soluble”.
For “MTALITQFWQQVETALKTANPQEKCRLVNDLYDNLLPQIQLIKLEDFPEIVPQDNIAAFPEKPLLVAPKDVPKRSFATEEGYAATLHAIAHIEFNAINLGLDAAWRFGRNAQEELGEGLAFVKDWLRVAREESTHFSLVNEHLKTLGYQYGDFEAHAGLWEMAQATAHDIWERMALVPRVLEARGLDATPVLQEKIAQRKDFAAVNILDIILRDEIGHVYIGNHWYHALSKKRGLDAMKCFTELLHKYRIVIFKGVINTDARIQAGFTQHELDWIYEVEQTLKSYIKKLEHHHHHH”, the “soluble on expression in E. coli” value was “soluble”.
With “MTANRQQYQVESVKESNLEEIVQFLIDNFAQTEAILASLKIDDDKICLKELTVMLRDLVQDSLQCSSTCVIRDVTTRQIDGIALACKTSIFDKQIDRLCAYEFREQRVRDAVEFLKYVFNKLDVMYYLNEHRLYKPVFVALVCVRKELWGRGIGTTLMNHVKSAARTDSSDGLISLCSNERGHKLMKTYCPTDFAAVRYDAFKGEHLRPPIVMRPPETFHSVYAMLSKFN” the “soluble on expression in E. coli” value was “soluble”.
For “MTARAIIIGAPRSGSGKTSVTIGLLRAFARRGVKVRGIKTGPDYIDPGFHAFATGTPGLNLDSWAMQPDLLRHLFSQQTEDAELILIESAMGLFDGIPVAENRTGSAADLARLFRIPVLLVLDVSGQSQTAATIAHGFAHYDPDVTMGAVVLNRAGSERHRTLCTEAIEKIGLPVVGCVLRDPSLILPERHLGLVQASEHPEIDPHIDRLADAMEKSIDLDTLFSLAAPVDMPCGSVAAAIAPPGQRIALAEDAAFTFLYPHLRRHWRAAGAEIVPFSPLADEAPDESCDICWLPGGYPELFAGKLADAVGFKAGITRFAETKPVHGECGGYMVLGERLEDAEGVIHAMTGLLSHATSFATRKMNLGYRQATIAADSPLGMAGDVLRGHEFHYARVIDPGRDQPFAHMADGQGRPLGPSGGRRGFVSGTFFHAIAKGGLEHHHHHH”, the “soluble on expression in E. coli” value was “not soluble”.
In the case of “MTARAVRGTKDLFGKELRMHQRIVATARKVLEAAGALELVTPIFEETQVFEKGVGAATDIVRKEMFTFQDRGGRSLTLRPEGTAAMVRAYLEHGMKVWPQPVRLWMAGPMFRAERPQKGRYRQFHQVNYEALGSENPILDAEAVVLLYECLKELGLRRLKVKLSSVGDPEDRARYNAYLREVLSPHREALSEDSKERLELNPMRILDSKSERDQALLKELGVRPMLDFLGEEARAHLKEVERHLERLSVPYELEPALVRGLDYYVRTAFEVHHEEIGAQSALGGGGRYDGLSELLGGPRVPGVGFAFGVERVALALEAEGFGLPEEKGPDLYLIPLTEEAVAEAFYLAEALRPRLRAEYALAPRKPAKGLEEALKRGAAFAGFLGEDELRAGEVTLKRLATGEQVRLSREEVPGYLLQALG”, the “soluble on expression in E. coli” value is reported as “soluble”.
For “MTARPYEPPPDYPMIEQRWPTTVRNSSIHPHVSSAHPSYRSHSIDAAVNRSSSACFHSPHRPSFPSRGLQKYDYPICGVSPSRHLSYNHFYNQSAAEIEEMLRTRQFPEIAGIYGNDEQPSLRRFTRYNQSINSRAVPPPAPPNPPKMEKHMSHDTSGRGSIFSKSSKKPLFFMGNWTFRDRNKSARPSISEALREERPQSMNLSDIKPATRSKSGEVLGPRNHIHIESITEFPRNIETRVPVKIERSSMVRRKPSNMGGSTEVSITSSSPSPSSSSSTSTGEFKTTITVDDDHQPTAVMRPKKESDTRGTLNNNRYSFQSCVQLRKSCPDLDSTAMSNMEQHRVSKKRTRRAKEKMSQAAWKRKTVKEWSLDDVLLWLQSAQMDDVAGLLIGYDLRGEDLLQWNDQTLAQLGVSNPEIRKKLLDDLSKIIENGPEPAQEDIRNNHRTLFDIVKQTSYDQVLAVETPLTTRDITVTHGRLGCLQITKVNGANLPLKEHDCLLEINERAGEQFKSALMLTKLISDSNGAAIRFVVLRRKTNLVVEESQQKESSSSGISSSPQTPTE”, the “soluble on expression in E. coli” value was “not soluble”.
